Data published in article PMC8584152, “The Bacterial Amyloids Phenol Soluble Modulins from Staphylococcus aureus Catalyze Alpha-Synuclein Aggregation” (International Journal of Molecular Sciences, 2021).

Target: Human wildtype α-syn, Alexa-fluor488-labelled (human, UniProt P37840 1-140)
Test: peptide or protein array
Details: both partners purified

Binder | binding result
FVAKLFKFFK (source: 10-residue peptide immobilized on a microarray chip; maker not clearly stated) [PSMα3 sequence FVAKLFKFFK (10-residue array peptide)] | binds
GIIKFIKGLI (source: 10-residue peptide immobilized on a microarray chip; maker not clearly stated) [PSMα2 sequence GIIKFIKGLI (10-residue array peptide)] | binds
IIAGIIKFIK (source: 10-residue peptide immobilized on a microarray chip; maker not clearly stated) [PSMα2 sequence IIAGIIKFIK (10-residue array peptide)] | binds
